Experimental data published in patent US20180155451A1 (published 2018).

T1: FcγRIIb (human, UniProt P31994 43-217)
T1 construct: extracellular domain; also called FcgRIIb; 2b
T1 sequence (looked up): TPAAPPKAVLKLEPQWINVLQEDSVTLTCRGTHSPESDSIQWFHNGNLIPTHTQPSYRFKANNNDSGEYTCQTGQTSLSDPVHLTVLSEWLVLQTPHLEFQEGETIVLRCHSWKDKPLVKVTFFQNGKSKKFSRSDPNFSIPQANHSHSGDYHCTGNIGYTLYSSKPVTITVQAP

B1: GpH7-A5/GpH7-B3 variant (H268_04F)/GpL16-k0 (antibody, human IgG1, kappa)
heavy 1: not shown
heavy 2: not shown
light: DIVMTQSPLSLPVTPGEPASISCQASESLVHSNRNTYLHWYLQKPGQSPQLLIYKVSNRFSGVPDRFSGSGSGTDFTLKISRVEAEDVGVYYCSQNTHVPPTFGQGTKVEIERTVAAPSVFIFPPSDEQLKSGTASVVCLLNNFYPREAKVQWKVDNALQSGNSQESVTEQDSKDSTYSLSSTLTLSKADYEKHKVYACEVTHQGLSSPVTKSFNRGEC
notes: IgG1 heterodimer, mutation in the GpH7-B3 chain only; also called He Ab
B2: GpH7-A5/GpH7-B3 variant (H268_06M)/GpL16-k0 (antibody, human IgG1, kappa)
heavy 1: not shown
heavy 2: not shown
light: DIVMTQSPLSLPVTPGEPASISCQASESLVHSNRNTYLHWYLQKPGQSPQLLIYKVSNRFSGVPDRFSGSGSGTDFTLKISRVEAEDVGVYYCSQNTHVPPTFGQGTKVEIERTVAAPSVFIFPPSDEQLKSGTASVVCLLNNFYPREAKVQWKVDNALQSGNSQESVTEQDSKDSTYSLSSTLTLSKADYEKHKVYACEVTHQGLSSPVTKSFNRGEC
notes: as for B1
B3: GpH7-A5/GpH7-B3 variant (H268_07I)/GpL16-k0 (antibody, human IgG1, kappa)
heavy 1: not shown
heavy 2: not shown
light: DIVMTQSPLSLPVTPGEPASISCQASESLVHSNRNTYLHWYLQKPGQSPQLLIYKVSNRFSGVPDRFSGSGSGTDFTLKISRVEAEDVGVYYCSQNTHVPPTFGQGTKVEIERTVAAPSVFIFPPSDEQLKSGTASVVCLLNNFYPREAKVQWKVDNALQSGNSQESVTEQDSKDSTYSLSSTLTLSKADYEKHKVYACEVTHQGLSSPVTKSFNRGEC
notes: as for B1
B4: GpH7-A5/GpH7-B3 variant (H268_08L)/GpL16-k0 (antibody, human IgG1, kappa)
heavy 1: not shown
heavy 2: not shown
light: DIVMTQSPLSLPVTPGEPASISCQASESLVHSNRNTYLHWYLQKPGQSPQLLIYKVSNRFSGVPDRFSGSGSGTDFTLKISRVEAEDVGVYYCSQNTHVPPTFGQGTKVEIERTVAAPSVFIFPPSDEQLKSGTASVVCLLNNFYPREAKVQWKVDNALQSGNSQESVTEQDSKDSTYSLSSTLTLSKADYEKHKVYACEVTHQGLSSPVTKSFNRGEC
notes: as for B1
B5: GpH7-A5/GpH7-B3 variant (H268_11K)/GpL16-k0 (antibody, human IgG1, kappa)
heavy 1: not shown
heavy 2: not shown
light: DIVMTQSPLSLPVTPGEPASISCQASESLVHSNRNTYLHWYLQKPGQSPQLLIYKVSNRFSGVPDRFSGSGSGTDFTLKISRVEAEDVGVYYCSQNTHVPPTFGQGTKVEIERTVAAPSVFIFPPSDEQLKSGTASVVCLLNNFYPREAKVQWKVDNALQSGNSQESVTEQDSKDSTYSLSSTLTLSKADYEKHKVYACEVTHQGLSSPVTKSFNRGEC
notes: as for B1
B6: GpH7-A5/GpH7-B3 variant (H268_12R)/GpL16-k0 (antibody, human IgG1, kappa)
heavy 1: not shown
heavy 2: not shown
light: DIVMTQSPLSLPVTPGEPASISCQASESLVHSNRNTYLHWYLQKPGQSPQLLIYKVSNRFSGVPDRFSGSGSGTDFTLKISRVEAEDVGVYYCSQNTHVPPTFGQGTKVEIERTVAAPSVFIFPPSDEQLKSGTASVVCLLNNFYPREAKVQWKVDNALQSGNSQESVTEQDSKDSTYSLSSTLTLSKADYEKHKVYACEVTHQGLSSPVTKSFNRGEC
notes: as for B1
B7: GpH7-A5/GpH7-B3 variant (H268_14T)/GpL16-k0 (antibody, human IgG1, kappa)
heavy 1: not shown
heavy 2: not shown
light: DIVMTQSPLSLPVTPGEPASISCQASESLVHSNRNTYLHWYLQKPGQSPQLLIYKVSNRFSGVPDRFSGSGSGTDFTLKISRVEAEDVGVYYCSQNTHVPPTFGQGTKVEIERTVAAPSVFIFPPSDEQLKSGTASVVCLLNNFYPREAKVQWKVDNALQSGNSQESVTEQDSKDSTYSLSSTLTLSKADYEKHKVYACEVTHQGLSSPVTKSFNRGEC
notes: as for B1
B8: GpH7-A5/GpH7-B3 variant (L234_01G)/GpL16-k0 (antibody, human IgG1, kappa)
heavy 1: not shown
heavy 2: not shown
light: DIVMTQSPLSLPVTPGEPASISCQASESLVHSNRNTYLHWYLQKPGQSPQLLIYKVSNRFSGVPDRFSGSGSGTDFTLKISRVEAEDVGVYYCSQNTHVPPTFGQGTKVEIERTVAAPSVFIFPPSDEQLKSGTASVVCLLNNFYPREAKVQWKVDNALQSGNSQESVTEQDSKDSTYSLSSTLTLSKADYEKHKVYACEVTHQGLSSPVTKSFNRGEC
notes: as for B1
B9: GpH7-A5/GpH7-B3 variant (L234_02A)/GpL16-k0 (antibody, human IgG1, kappa)
heavy 1: not shown
heavy 2: not shown
light: DIVMTQSPLSLPVTPGEPASISCQASESLVHSNRNTYLHWYLQKPGQSPQLLIYKVSNRFSGVPDRFSGSGSGTDFTLKISRVEAEDVGVYYCSQNTHVPPTFGQGTKVEIERTVAAPSVFIFPPSDEQLKSGTASVVCLLNNFYPREAKVQWKVDNALQSGNSQESVTEQDSKDSTYSLSSTLTLSKADYEKHKVYACEVTHQGLSSPVTKSFNRGEC
notes: as for B1
B10: GpH7-A5/GpH7-B3 variant (L234_03V)/GpL16-k0 (antibody, human IgG1, kappa)
heavy 1: not shown
heavy 2: not shown
light: DIVMTQSPLSLPVTPGEPASISCQASESLVHSNRNTYLHWYLQKPGQSPQLLIYKVSNRFSGVPDRFSGSGSGTDFTLKISRVEAEDVGVYYCSQNTHVPPTFGQGTKVEIERTVAAPSVFIFPPSDEQLKSGTASVVCLLNNFYPREAKVQWKVDNALQSGNSQESVTEQDSKDSTYSLSSTLTLSKADYEKHKVYACEVTHQGLSSPVTKSFNRGEC
notes: as for B1

Experiments:
[1] = target: T1, FcγRIIb; assay: SPR, captured antibody; relative to GpH7-A5/GpH7-B3/GpL16-k0
[2] = target: T2, FcγRIa (human, UniProt P12314 16-292); assay: as above
T2 construct: extracellular domain; also called FcgRI; 1a
T2 sequence (P12314 16-292): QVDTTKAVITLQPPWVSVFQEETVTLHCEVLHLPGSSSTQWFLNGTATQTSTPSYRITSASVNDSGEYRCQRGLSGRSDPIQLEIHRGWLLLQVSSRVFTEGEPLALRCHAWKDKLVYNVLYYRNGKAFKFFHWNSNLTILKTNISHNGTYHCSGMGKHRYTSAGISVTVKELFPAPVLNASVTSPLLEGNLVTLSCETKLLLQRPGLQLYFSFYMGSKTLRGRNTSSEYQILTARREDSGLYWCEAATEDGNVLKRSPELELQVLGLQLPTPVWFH

Binder	He/Con_2b [1]	He/Con_1a [2]
B1	89.6 relative, HeCon Ab = 100	106 relative, HeCon Ab = 100
B2	65.7 relative, HeCon Ab = 100	105 relative, HeCon Ab = 100
B3	88.9 relative, HeCon Ab = 100	108 relative, HeCon Ab = 100
B4	67.8 relative, HeCon Ab = 100	107 relative, HeCon Ab = 100
B5	83 relative, HeCon Ab = 100	106 relative, HeCon Ab = 100
B6	89.8 relative, HeCon Ab = 100	106 relative, HeCon Ab = 100
B7	86 relative, HeCon Ab = 100	112 relative, HeCon Ab = 100
B8	50.7 relative, HeCon Ab = 100	96.1 relative, HeCon Ab = 100
B9	64.9 relative, HeCon Ab = 100	97.5 relative, HeCon Ab = 100
B10	73.1 relative, HeCon Ab = 100	104 relative, HeCon Ab = 100
